B1: LCOR (parent)
chain: PCAGSTSLSHSPGCSSTQGNGRPG
B2: ZNF193 (parent)
chain: QCIECGKSFNRHCNLIRHQKIHTV

Variants of: B1
Test: protein stability index of a GFP-peptide fusion (GPS, HEK-293T) (PSI 1-6); higher = more stable
Details: c terminus: a fixed tail appended
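Also: lentivirally expressed fusions sorted by FACS into six bins by GFP to DsRed ratio, PSI derived from sequencing read proportions per bin multiplied by bin number.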

Row | Variant | protein stability index
1 | PCAGSTYLSHSPGCSSTQGNGRPG [S7Y] | 2.87
2 | PCAGSTMLSHSPGCSSTQGNGRPG [S7M] | 1.82
3 | PCAGSTDLSHSPGCSSTQGNGRPG [S7D] | 4.82
4 | PCAGSTALSHSPGCSSTQGNGRPG [S7A] | 2.19
5 | PCAGSTLLSHSPGCSSTQGNGRPG [S7L] | 1.64
6 | PCAGSTSLSHSPGCSSTQGNGRHG [P23H] | 3.88
7 | PCAGSTSLSHSPGCSSTQGNGRFG [P23F] | 2.46
8 | PCAGSTSLSHSPGCSSTQGNGRAG [P23A] | 3.78
9 | PCAGSTSLSHSPGCSSTQGNGRMG [P23M] | 2.98
10 | PCAGSTSLSHSPGCSSTQGNGRLG [P23L] | 3.24
11 | PCAGSTSLSHSPGCSSTQGNGRVG [P23V] | 3.39
12 | PCAQSTSLSHSPGCSSTQGNGRPG [G4Q] | 4.2
13 | PCAASTSLSHSPGCSSTQGNGRPG [G4A] | 2.7
14 | PCAGSTSLSHSPGMSSTQGNGRPG [C14M] | 4.53
15 | PCAGSTSLSHSVGCSSTQGNGRPG [P12V] | 3.15
16 | PCAGSTSLSHSSGCSSTQGNGRPG [P12S] | 3.55
17 | PCAGSTSLSHSNGCSSTQGNGRPG [P12N] | 4.11
18 | PCAGSTSLSHSPSCSSTQGNGRPG [G13S] | 3.46
19 | PCAGSTSLSHSPGCSSTQLNGRPG [G19L] | 2.91
20 | PCAGSTSLSHSPGCSSTQDNGRPG [G19D] | 3.91
21 | PCAGSTSLSHSPGCSSTQWNGRPG [G19W] | 1.91
22 | PCAGSTSLSHSPGCSSTQCNGRPG [G19C] | 2.56
23 | PCAGSTSLSKSPGCSSTQGNGRPG [H10K] | 4.86
24 | PCAGSTSLSPSPGCSSTQGNGRPG [H10P] | 3.37
25 | PCAGSTSLSSSPGCSSTQGNGRPG [H10S] | 4.29

Row | Variant | protein stability index
26 | PCAGSTSCSHSPGCSSTQGNGRPG [L8C] | 4.55
27 | PCAGSTSVSHSPGCSSTQGNGRPG [L8V] | 3.58
28 | PCAGSTSISHSPGCSSTQGNGRPG [L8I] | 3.67
29 | PCAGSRSLSHSPGCSSTQGNGRPG [T6R] | 4.93
30 | PCAGSFSLSHSPGCSSTQGNGRPG [T6F] | 2.91
31 | PCAGSWSLSHSPGCSSTQGNGRPG [T6W] | 2.84
32 | PCAGSDSLSHSPGCSSTQGNGRPG [T6D] | 4.35
33 | PCYGSTSLSHSPGCSSTQGNGRPG [A3Y] | 3.21
34 | PCSGSTSLSHSPGCSSTQGNGRPG [A3S] | 3.73
35 | PCHGSTSLSHSPGCSSTQGNGRPG [A3H] | 4
36 | PCVGSTSLSHSPGCSSTQGNGRPG [A3V] | 3.87
37 | PCQGSTSLSHSPGCSSTQGNGRPG [A3Q] | 4.08
38 | PCAGSTSLSHSPGCSSTQGMGRPG [N20M] | 2.83
39 | PCAGSTSLSHSPGCSSTQGHGRPG [N20H] | 2.79
40 | PCAGSTSLSHSPGCSSTQGIGRPG [N20I] | 2.19
41 | PCAGSTSLSHSPGCSSTQGLGRPG [N20L] | 2.91
42 | PCAGSTSLTHSPGCSSTQGNGRPG [S9T] | 3
43 | PCAGSTSLRHSPGCSSTQGNGRPG [S9R] | 1.04
44 | PCAGSTSLHHSPGCSSTQGNGRPG [S9H] | 2.36
45 | PCAGSTSLSHYPGCSSTQGNGRPG [S11Y] | 2.9
46 | PCAGSTSLSHCPGCSSTQGNGRPG [S11C] | 1.94
47 | PCAGSTSLSHIPGCSSTQGNGRPG [S11I] | 2.18
48 | PCAGSTSLSHWPGCSSTQGNGRPG [S11W] | 2.74
49 | PCAGATSLSHSPGCSSTQGNGRPG [S5A] | 2.98
50 | PCAGMTSLSHSPGCSSTQGNGRPG [S5M] | 2.9

Row | Variant | protein stability index
51 | PCAGFTSLSHSPGCSSTQGNGRPG [S5F] | 3.35
52 | PCAGYTSLSHSPGCSSTQGNGRPG [S5Y] | 2.41
53 | PCAGSTSLSHSPGCSSTQGNGRPS [G24S] | 3.22
54 | YCAGSTSLSHSPGCSSTQGNGRPG [P1Y] | 2.96
55 | PNAGSTSLSHSPGCSSTQGNGRPG [C2N] | 4.74
56 | PYAGSTSLSHSPGCSSTQGNGRPG [C2Y] | 3.55
57 | PCAGSTSLSHSPGCSSTQGNIRPG [G21I] | 3.54
58 | PCAGSTSLSHSPGCSSTDGNGRPG [Q18D] | 2.98
59 | PCAGSTSLSHSPGCSSTSGNGRPG [Q18S] | 3.55
60 | PCAGSTSLSHSPGCSSTNGNGRPG [Q18N] | 3.51
61 | PCAGSTSLSHSPGCESTQGNGRPG [S15E] | 3.55
62 | PCAGSTSLSHSPGCISTQGNGRPG [S15I] | 2.8
63 | PCAGSTSLSHSPGCHSTQGNGRPG [S15H] | 2.4
64 | PCAGSTSLSHSPGCASTQGNGRPG [S15A] | 2.91
65 | PCAGSTSLSHSPGCFSTQGNGRPG [S15F] | 2.83
66 | PCAGSTSLSHSPGCSSTQGNGQPG [R22Q] | 3.98
67 | PCAGSTSLSHSPGCSSTQGNGSPG [R22S] | 5.07
68 | PCAGSTSLSHSPGCSSTQGNGLPG [R22L] | 2.47
69 | PCAGSTSLSHSPGCSSWQGNGRPG [T17W] | 1.89
70 | PCAGSTSLSHSPGCSSNQGNGRPG [T17N] | 2.29
71 | PCAGSTSLSHSPGCSPTQGNGRPG [S16P] | 4.1
72 | PCAGSTSLSHSPGCSYTQGNGRPG [S16Y] | 2.02
73 | PCAGSTSLSHSPGCSRTQGNGRPG [S16R] | 4.34
74 | PCAGSTSLSHSPGCSHTQGNGRPG [S16H] | 2.21

Variants of: B2
Test: as above
Details: c terminus: a fixed tail appended

Row | Variant | protein stability index
75 | QCIECGKSFNRHCNLIRHQMIHTV [K20M] | 3.13
76 | QCIECGKSFNRHCNLIRMQKIHTV [H18M] | 1.65
77 | ECIECGKSFNRHCNLIRHQKIHTV [Q1E] | 2.8
78 | QCIECGKSFPRHCNLIRHQKIHTV [N10P] | 2.8
79 | QCIECGKSFNRHCNLIRHQKRHTV [I21R] | 3.81
80 | QCIECGKSFNRHCNLIRHTKIHTV [Q19T] | 2.79
81 | QCIECGKSFNRHCNLIRHLKIHTV [Q19L] | 2.75
82 | QCIECGKLFNRHCNLIRHQKIHTV [S8L] | 4.35
83 | QCIECGKHFNRHCNLIRHQKIHTV [S8H] | 3.29
84 | QCIECGKSFNRHCTLIRHQKIHTV [N14T] | 3.44
85 | QCIECGKSFNRHCNEIRHQKIHTV [L15E] | 3.06
86 | QCIECGKSFNRNCNLIRHQKIHTV [H12N] | 3.52
87 | QCIECGKSFNRSCNLIRHQKIHTV [H12S] | 3.22
88 | QCIECGKSLNRHCNLIRHQKIHTV [F9L] | 1.9
89 | QCIECGKSFNRHCNLILHQKIHTV [R17L] | 2.9
90 | QCIECGKSFNRHCNLIVHQKIHTV [R17V] | 2.99
91 | QCIEKGKSFNRHCNLIRHQKIHTV [C5K] | 2.09
92 | QCIEEGKSFNRHCNLIRHQKIHTV [C5E] | 2.71
93 | QCIECGKSFNMHCNLIRHQKIHTV [R11M] | 2.86
94 | QCIECCKSFNRHCNLIRHQKIHTV [G6C] | 1.99
